Values of other authors in publication PMC5457079.

Target: insulin (Homo sapiens) (UniProt P01308)

- Kd: 10 µM
Substance: insulin (from UniProt P01308)
